Measurements from patent US20120308574A1 (HANWHA CHEMICAL, published 2012).

T1: mVCAM-1-Fc chimera (R&D systems, Cat# 643-VM) (mouse, UniProt P29533 25-698)
T1 construct: Bought product; also called Mouse VCAM-1 antigen; mouse antigen; Fc part of the bought chimera not given
T1 sequence (looked up): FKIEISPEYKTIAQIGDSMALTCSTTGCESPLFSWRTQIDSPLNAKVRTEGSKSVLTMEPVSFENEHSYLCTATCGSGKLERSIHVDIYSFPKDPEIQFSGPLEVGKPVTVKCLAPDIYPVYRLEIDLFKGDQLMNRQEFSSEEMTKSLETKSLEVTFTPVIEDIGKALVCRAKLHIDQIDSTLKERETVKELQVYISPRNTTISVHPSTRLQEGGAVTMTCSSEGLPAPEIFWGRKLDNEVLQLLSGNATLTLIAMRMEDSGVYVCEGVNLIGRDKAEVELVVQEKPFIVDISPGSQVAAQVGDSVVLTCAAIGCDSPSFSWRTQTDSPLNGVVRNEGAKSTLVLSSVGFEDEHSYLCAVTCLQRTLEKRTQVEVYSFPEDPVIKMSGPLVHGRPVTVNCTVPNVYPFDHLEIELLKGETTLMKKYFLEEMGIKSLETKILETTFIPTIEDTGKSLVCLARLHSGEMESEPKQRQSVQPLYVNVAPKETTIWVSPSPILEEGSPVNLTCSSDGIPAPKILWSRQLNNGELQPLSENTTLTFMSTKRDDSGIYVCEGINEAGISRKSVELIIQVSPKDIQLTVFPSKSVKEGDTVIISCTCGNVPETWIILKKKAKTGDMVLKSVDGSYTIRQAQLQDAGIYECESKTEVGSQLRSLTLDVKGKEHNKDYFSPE

T2: recombinant human VCAM-1 domain 1~7/Fc chimera (R&D, 862-VC) (human, UniProt P19320 25-698)
T2 construct: domain: domain 1~7; Bought product; also called VD7; hVCAM-Fc-chimera; Fc part of the bought chimera not given
T2 sequence (looked up): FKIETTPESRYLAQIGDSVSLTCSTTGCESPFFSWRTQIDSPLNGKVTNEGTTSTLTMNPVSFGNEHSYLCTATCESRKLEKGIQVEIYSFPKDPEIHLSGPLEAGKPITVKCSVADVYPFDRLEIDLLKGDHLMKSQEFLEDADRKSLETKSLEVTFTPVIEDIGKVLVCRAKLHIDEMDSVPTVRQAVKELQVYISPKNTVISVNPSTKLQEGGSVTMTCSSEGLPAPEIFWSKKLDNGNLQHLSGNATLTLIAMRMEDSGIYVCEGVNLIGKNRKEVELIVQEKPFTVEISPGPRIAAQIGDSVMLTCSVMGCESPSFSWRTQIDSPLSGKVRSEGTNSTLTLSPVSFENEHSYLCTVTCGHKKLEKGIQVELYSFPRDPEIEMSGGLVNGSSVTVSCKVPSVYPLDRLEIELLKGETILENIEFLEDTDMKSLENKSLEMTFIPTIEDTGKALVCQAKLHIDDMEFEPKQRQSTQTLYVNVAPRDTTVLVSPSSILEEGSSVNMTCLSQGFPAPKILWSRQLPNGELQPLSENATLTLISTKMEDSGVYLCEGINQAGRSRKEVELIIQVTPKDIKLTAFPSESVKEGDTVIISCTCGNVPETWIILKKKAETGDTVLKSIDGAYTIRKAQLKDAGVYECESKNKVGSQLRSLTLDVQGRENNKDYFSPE

T3: recombinant human VCAM-1 (Cat. No. 809-VR-200, R&D systems) (human, UniProt P19320 25-698, limits assumed)
T3 sequence (looked up): T2 sequence (looked up)

B1: anti VCAM-1 human monoclonal antibody 7H (antibody, V domains shown)
VH: QMQLVQSGGDLVKPGESLRLSCAASGFTFNDAWMTWVRQPPGKGLEWVGRIKSTTDGGTTNYAAPVEGRFTISRDDSKNTLYLEMNSLRAEDTAVYYCARIPLFNHDSGGYHGAFDIWGQGTMVTVSS
VL: DIQMTQSPSSLAVSLGERATINCKSSQSVLYSSNNKNYLAWYQQKPGQPPKLLIYWASTRESGVPDRFSGSGSGTDFTLTISSLQPEDFASYYCQESYSAPYTFGQGTKVEIKR
B2: anti VCAM-1 human monoclonal antibody 4B (antibody, V domains shown)
VH: QMQLVESGGGLVQPGGSLRLSCAASGFTFSSYGVSWVRQAPGKGLEWVSRISGSGGSTYYADSVKGRFTISRDNSKSTLYLQMNSLRAEDTAVYYCARPIFYGGNSAFDSWGQGTLVTVSS
VL: QLVLTQPPSVSAAPGQKVTISCSGSSSNIGNNFVSWYQHLPGTAPKLLIYDNNKRPSGIPDRFSGSKSGTSATLGIAGLQTGDDADYYCGTWDSSLSAYVFGTGAKVTVL
notes: Tested as full IgG converted from an scFv phage clone and expressed in CHO-S (about 55 kDa heavy chain, about 25 kDa light chain)
B3: anti VCAM-1 human monoclonal antibody 7C (antibody, V domains shown)
VH: QVQLVESGGGVVQPGGSLRLSCAASGFTFDDYAMHWVRQAPGKGLEWVSLISGDGTDTYYADSVKGRFTISRDNSKNSLYLQMNSLRAEDTAVYYCAKRGYSYLGALDGWGQGTKITVSS
VL: QLVLTQSPSVSVAPGQTARITCGGDNIGRESVHWYQQKAGQAPVLVIYYDSDRPSGIPERFSGSNSGNTATLTISWVDAGDEADYYCQVWDSSSDHVVFGGGTKLTVL

What was measured:
[1] = biological target: T1, mVCAM-1-Fc chimera (R&D systems, Cat# …); assay: SPR (BIACORE), VCAM-1/Fc immobilised on CM5 chip, antibody as analyte, 1:1 binding model
Description: (§1) 1 mg/Ml of ligand to be immobilized was diluted in 97 μl of each sodium acetate solution (varying within the pH range from 4.0 to 5.5) at a dilution ratio of 3/100, and then applied at a flow rate of 10 μl/min for about 3 min (as a negative control, the ligand was diluted using a running buffer, HBS-EP buffer (BIACORE AB, Sweden) in the same manner). In order to immobilize the ligand at a predetermined value target RU (resonance unit), serial injection was carried out automatically, until reaching target RU. The ligand-immobilized chip was inactivated by injection of 1M ethanolamine (Amine Coupling Kit, BR-1000-50) at a flow rate of 10 μl/min for about 3 min. The final RU was determined by an immobilization report which provides a difference in RU values before and after injection of ethanolamine.
(§2) A flow cell2-flow cell mode provided by BIACORE instrument was employed in this experiment in order to remove non-specific binding. At this time, a recombinant VCAM1/Fc antigen was immobilized as a ligand to the flow cell2, and BSA (Bovine Serum Albumin) was immobilized to the flow cell. Then, each of the anti VCAM-1 antibodies 4B, 7C and 7H as the analyte were applied to flow cell 1 and 2, simultaneously. The sensogram RU of flow cell was automatically subtracted from the sensogram RU of flow cell2. Subsequently, the analytes were applied at a flow rate of 30 μl/min for about 3 min, and then dissociation was induced for 120 sec. Through this procedure, an association/dissociation curve of the corresponding antigen and antibody was obtained, and an association/dissociation constant KD was calculated by BIAevaluation program (BIACORE AB, Sweden), as shown in the following Table 2.
(§3) The above Table 2 represents the binding capacity or affinity of human and mouse VCAM-1 antigen-specific anti VCAM-1 human monoclonal antibodies to antigen, and a protein affinity analyzer, BIACORE (BIACORE AB, Sweden) was used to analyze a species specific antigen-antibody affinity to the biologically different species, human and mouse antigens. The affinity constant KD value of corresponding antigen-antibody was calculated in a 1:1 binding mode.

[2] = biological target: T2, recombinant human VCAM-1 domain 1~7/Fc …; assay: as above
Description: as §1, §2, §3

[3] = biological target: T3, recombinant human VCAM-1 (Cat. No. …); assay: cell-based or functional assay
[4] = biological target: T2, recombinant human VCAM-1 domain 1~7/Fc …; assay: SPR (BIACORE), VCAM-1/Fc immobilised, antibody as analyte
Description: as §1, with “For ligand immobilization to the sensor chip CM5, the chip should be first activated with a mixture of N-hydroxysuccinimide (NHS) and […] (EDC) (Amine Coupling Kit, BR-1000-50) to prepare a NHS-ester-activated chip surface being highly reactive to an amino group. 1 mg/Ml” for “1 mg/Ml”, “target RU. […] The final” for “target RU. The ligand-immobilized chip was inactivated by injection of 1M ethanolamine (Amine Coupling Kit, BR-1000-50) at a flow rate of 10 μl/min for about 3 min. The final”
(§4) A flow cell2-flow cell mode provided by BIACORE instrument was employed in this experiment in order to remove non-specific binding. […] Through this procedure, an association/dissociation curve of the corresponding antigen and antibody was obtained, and an association/dissociation constant KD was calculated by BIAevaluation program (BIACORE AB, Sweden), as shown in the following Table 2.

[5] = biological target: T1, mVCAM-1-Fc chimera (R&D systems, Cat# …); assay: SPR (BIACORE), VCAM-1/Fc immobilised on CM5 chip, antibody as analyte
Description: as §1, with “For ligand immobilization to the sensor chip CM5, the chip should be first activated with a mixture of N-hydroxysuccinimide (NHS) and […] (EDC) (Amine Coupling Kit, BR-1000-50) to prepare a NHS-ester-activated chip surface being highly reactive to an amino group. 1 mg/Ml” for “1 mg/Ml”, “target RU. […] The final” for “target RU. The ligand-immobilized chip was inactivated by injection of 1M ethanolamine (Amine Coupling Kit, BR-1000-50) at a flow rate of 10 μl/min for about 3 min. The final”
as §4

Binder | Kd [1] | Kd [2] | inhibition of adhesion of fluorescence-labelled U937 leukocytes to coated human VCAM-1 (reduction in fluorescence intensity) [3] | Kd [4] | binding result [5]
B1 | 10.7 nM | 5.44 nM | 90% | – | –
B2 | – | 0.5 nM | 80% | ~1 nM | no binding
B3 | 36.9 nM | 38.8 nM | 90% | – | –
